± gives the standard deviation of the averaged measurements.
Key:
[1] = system: VchCAST RNA-guided transposition machinery (E. coli BL21(DE3) host, lacZ target); assay: relative integration efficiency (T-RL orientation) vs wild-type transposon end (log2 (normalized fold change)); transposon end mutated: left end; higher = more efficient transposition
Outline: (§1)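 Co-transformation of E. coli BL21(DE3) combined a pUC57 mini-transposon donor, holding barcoded pools of 1549 left-end or 1849 right-end variants, with a T7-driven plasmid encoding a CRISPR array, tniQ-cas8-cas7-cas6 and tnsA-tnsB-tnsC. After plating with 0.1 mM IPTG at 37°C for 18 h, input plasmids and genomic integration junctions were PCR-amplified and Illumina-sequenced across two biological output replicates, with four reference barcodes. Relative integration efficiency is the normalised, log-transformed output/input barcode fold change.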

[2] = system: VchCAST RNA-guided transposition machinery (E. coli BL21(DE3) host, lacZ target); assay: relative integration efficiency (T-LR orientation) vs wild-type transposon end (log2 (normalized fold change)); transposon end mutated: left end; higher = more efficient transposition
Outline: as §1

| Sequence | relative integration efficiency (log2) [1] | relative integration efficiency (log2) [2] |
| --- | --- | --- |
| AATGTTGTTGATGCAACCATAAAGTGATATTTAATAATTATTTATAATCAGCAACTTAACCACAAAACAACCATATATTGATATCTCACCAACCATAAGTTGATATTTTTGTGAATCGAGTATTTCAGCAAAACTACTGCAGTAAGAAAGTT | -3.37 ± 0.94 | -2.01 ± 2.7 |
| AATGTTGTTGATGCAACCATAAAGTGATATTTAATAATTATTTATAATCAGCAACTTAACCACAAAACAACCATATATTGATATCTCACCCCCACCAACGCCTGGTCGCGGGGGTGTCCGATCTGATTTCAGCAAAACTACTGCAGTAAGAA | -2.66 ± 0.95 | -1.5 ± 1.8 |
| AATGTTGTTGATGCAACCATAAAGTGATATTTAATAATTATTTATAATCAGCAACTTAACCACAAAACAACCATATATTGATATCTCCAACCATAAGTTGATATTTTTGTGAATCGAGTATTTCAGCAAAACTACTGCAGTAAGAAAGTTAC | -3.71 ± 1.5 | -1.44 ± 1.2 |
| AATGTTGTTGATGCAACCATAAAGTGATATTTAATAATTATTTATAATCAGCAACTTAACCACAAAACAACCATATATTGATATCTCCACCCCACCAACGCCTGGTCGCGGGGGTGTCCGATCTGATTTCAGCAAAACTACTGCAGTAAGAA | -2.45 ± 0.85 | -0.685 ± 1.1 |
| AATGTTGTTGATGCAACCATAAAGTGATATTTAATAATTATTTATAATCAGCAACTTAACCACAAAACAACCATATATTGATCGAGACACCCCACCAACGCCTGGTCGCGGGGGTGTCCGATCTGATTTCAGCAAAACTACTGCAGTAAGAA | -3.99 ± 1.6 | -2.14 ± 1.3 |
| AATGTTGTTGATGCAACCATAAAGTGATATTTAATAATTATTTATAATCAGCAACTTAACCACAAAACAACCATATATTGCGCGAGACACCCCACCAACGCCTGGTCGCGGGGGTGTCCGATCTGATTTCAGCAAAACTACTGCAGTAAGAA | -4.62 ± 1.1 | -2.63 ± 0.53 |
| AATGTTGTTGATGCAACCATAAAGTGATATTTAATAATTATTTATAATCAGCAACTTAACCACAAAACAACCATATATTTCGCGAGACACCCCACCAACGCCTGGTCGCGGGGGTGTCCGATCTGATTTCAGCAAAACTACTGCAGTAAGAA | -6 ± 1.3 | -4.98 ± 3.6 |
| AATGTTGTTGATGCAACCATAAAGTGATATTTAATAATTATTTATAATCAGCAACTTAACCACAAAACAACCATCGCGGTCGCGAGACACCCCACCAACGCCTGGTCGCGGGGGTGTCCGATCTGATTTCAGCAAAACTACTGCAGTAAGAA | -7.35 ± 1.8 | -3.94 ± 2.1 |
| AATGTTGTTGATGCAACCATAAAGTGATATTTAATAATTATTTATAATCAGCAACTTAACCACAAAACAACCCGCGCGGTCGCGAGACACCCCACCAACGCCTGGTCGCGGGGGTGTCCGATCTGATTTCAGCAAAACTACTGCAGTAAGAA | -7.91 ± 1.9 | -4.43 ± 0.75 |
| AATGTTGTTGATGCAACCATAAAGTGATATTTAATAATTATTTATAATCAGCAACTTAACCACAAAACACAACGCGCGGTCGCGAGACACCCCACCAACGCCTGGTCGCGGGGGTGTCCGATCTGATTTCAGCAAAACTACTGCAGTAAGAA | -6.99 ± 3 | -4.26 ± 0.12 |
| AATGTTGTTGATGCAACCATAAAGTGATATTTAATAATTATTTATAATCAGCAACTTAACCACAAAACACCCATAAATTGATAATTAACAAAAGTTGGTATTCAACTATAAAATGTGAATCGAGTATTTCAGCAAAACTACTGCAGTAAGAA | -2.72 ± 0.87 | -1.11 ± 0.65 |
| AATGTTGTTGATGCAACCATAAAGTGATATTTAATAATTATTTATAATCAGCAACTTAACCACAAAACACCCATAAATTGATATTGCACAAAAGTTGGTATTCAACTATAAAATGTGAATCGAGTATTTCAGCAAAACTACTGCAGTAAGAA | -3.12 ± 1 | -0.929 ± 1.3 |
| AATGTTGTTGATGCAACCATAAAGTGATATTTAATAATTATTTATAATCAGCAACTTAACCACAAAACCCAACGCGCGGTCGCGAGACACCCCACCAACGCCTGGTCGCGGGGGTGTCCGATCTGATTTCAGCAAAACTACTGCAGTAAGAA | -7.08 ± 1.4 | -2.9 ± 0.65 |
| AATGTTGTTGATGCAACCATAAAGTGATATTTAATAATTATTTATAATCAGCAACTTAACCACAAAAGTTGGTATATAACTATAGAGACAAAACAACCATAAGTTGATATTTTTGTGAATCGAGTATTTCAGCAAAACTACTGCAGTAAGAA | -2.65 ± 1.1 | -1.8 ± 1.5 |
| AATGTTGTTGATGCAACCATAAAGTGATATTTAATAATTATTTATAATCAGCAACTTAACCACAAAATGTGAATCGACAACCATATATTGATATCTCACAAAACAACCATAAGTTGATATTTTGTATTTCAGCAAAACTACTGCAGTAAGAA | -2.45 ± 0.87 | -3.12 ± 0.12 |
